In patent US20150056209A1, “PEPTIDE MIMOTOPES TO OXIDATION SPECIFIC EPITOPES” (The Regents of the University of California, priority 2012, published 2015):
Bridges are numbered along the chain shown (N, C = ends). Where no end group is shown, it is not given here.

Experiments:
LRO4 [1] = experiment: phage ELISA, coated LRO4
LRO4 [2] = experiment: competitive phage ELISA, coated LRO4; competitor MDA-LDL 50 µg/mL
[3] = molecular target: control isotype anti-KLH IgM Ab (C48-6; BD Bioscience-Pharmingen); experiment: phage ELISA, coated control IgM

B1: phage clone Cb2 (peptide, not shown: large carriers)
chain: ACDWAPHFTCGGGS
modifications: disulfide 2-10; also: C-terminus fused to phage pIII
- OD (binding of phages to LR04) (LRO4 [1]): 1 OD
- B/Bo (inhibition of binding to LR04) (LRO4 [2]): 0.03 B/Bo
- OD (binding of phages to control IgM) [3]: 0.2 OD

B2: phage clone M2 (peptide, not shown: large carriers)
chain: ESWTNSWAMYFGGGGS
- OD (binding of phages to LR04) (LRO4 [1]): 1.17 OD
- B/Bo (inhibition of binding to LR04) (LRO4 [2]): 0.2 B/Bo
- OD (binding of phages to control IgM) [3]: 0.03 OD

B3: phage clones Ca1, Ca7 (peptide, not shown: large carriers)
chain: ACNNWNMPLCGGGS
modifications: disulfide 2-10; also: C-terminus fused to phage pIII
- OD (binding of phages to LR04) (LRO4 [1]): 0.8 OD
- B/Bo (inhibition of binding to LR04) (LRO4 [2]): 0.04 B/Bo
- OD (binding of phages to control IgM) [3]: 0.1 OD

B4: phage clones M3, M5 (peptide, not shown: large carriers)
chain: HRLTNSEQAALPGGGS
- OD (binding of phages to LR04) (LRO4 [1]): 1.56 OD
- B/Bo (inhibition of binding to LR04) (LRO4 [2]): 0.1 B/Bo
- OD (binding of phages to control IgM) [3]: 0.03 OD

B5: phage clone M8 (peptide, not shown: large carriers)
chain: TAVTNSMMERLWGGGS
- OD (binding of phages to LR04) (LRO4 [1]): 1.57 OD
- B/Bo (inhibition of binding to LR04) (LRO4 [2]): 0.2 B/Bo
- OD (binding of phages to control IgM) [3]: 0.04 OD

B6: phage clone A40 (peptide, not shown: large carriers)
chain: NSWTNASLSTFHGGGS
- OD (binding of phages to LR04) (LRO4 [1]): 0.89 OD
- B/Bo (inhibition of binding to LR04) (LRO4 [2]): 0.1 B/Bo
- OD (binding of phages to control IgM) [3]: 0.04 OD

B7: phage clone Cb10 (peptide, not shown: large carriers)
chain: ACNNSNMPLCGGGS
modifications: disulfide 2-10; also: C-terminus fused to phage pIII
- OD (binding of phages to LR04) (LRO4 [1]): 0.6 OD
- B/Bo (inhibition of binding to LR04) (LRO4 [2]): 0.02 B/Bo
- OD (binding of phages to control IgM) [3]: 0.2 OD

B8: phage clone M19 (peptide, not shown: large carriers)
chain: QSYTNDDVLRISGGGS
- OD (binding of phages to LR04) (LRO4 [1]): 1.67 OD
- B/Bo (inhibition of binding to LR04) (LRO4 [2]): 0.25 B/Bo
- OD (binding of phages to control IgM) [3]: 0.03 OD

B9: phage clones Ca59, Cb1 (peptide, not shown: large carriers)
chain: ACNNRNMPLCGGGS
modifications: disulfide 2-10; also: C-terminus fused to phage pIII
- OD (binding of phages to LR04) (LRO4 [1]): 0.8 OD
- B/Bo (inhibition of binding to LR04) (LRO4 [2]): 0.06 B/Bo
- OD (binding of phages to control IgM) [3]: 0.1 OD

B10: phage clone Cb589 (peptide, not shown: large carriers)
chain: ACNNYNMPLCGGGS
modifications: disulfide 2-10; also: C-terminus fused to phage pIII
- OD (binding of phages to LR04) (LRO4 [1]): 0.8 OD
- B/Bo (inhibition of binding to LR04) (LRO4 [2]): 0.03 B/Bo
- OD (binding of phages to control IgM) [3]: 0.1 OD

B11: phage clone A33 (peptide, not shown: large carriers)
chain: HQLSNKDEQTPQGGGS
- OD (binding of phages to LR04) (LRO4 [1]): 0.63 OD
- B/Bo (inhibition of binding to LR04) (LRO4 [2]): 0.14 B/Bo
- OD (binding of phages to control IgM) [3]: 0.05 OD

B12: phage clone Ca4 (peptide, not shown: large carriers)
chain: ACKNSXQPLCGGGS
modifications: disulfide 2-10; not fully specified; X: residue not identified in the source
- OD (binding of phages to LR04) (LRO4 [1]): 0.9 OD
- B/Bo (inhibition of binding to LR04) (LRO4 [2]): 0.13 B/Bo
- OD (binding of phages to control IgM) [3]: 0.1 OD

B13: phage clone G4 (peptide, not shown: large carriers)
chain: HRISNYAMELHSGGGS
- OD (binding of phages to LR04) (LRO4 [1]): 1.45 OD
- B/Bo (inhibition of binding to LR04) (LRO4 [2]): 0.1 B/Bo
- OD (binding of phages to control IgM) [3]: 0.04 OD

B14: phage clone M7 (peptide, not shown: large carriers)
chain: ADPFSPTNRIPLGGGS
- OD (binding of phages to LR04) (LRO4 [1]): 1.37 OD
- B/Bo (inhibition of binding to LR04) (LRO4 [2]): 0.1 B/Bo
- OD (binding of phages to control IgM) [3]: 0.03 OD

B15: phage clones A36, B41, M35 (peptide, not shown: large carriers)
chain: ESWTNSWAHYFGGGGS
- OD (binding of phages to LR04) (LRO4 [1]): 1.16 OD
- B/Bo (inhibition of binding to LR04) (LRO4 [2]): 0.14 B/Bo
- OD (binding of phages to control IgM) [3]: 0.03 OD

B16: phage clones Ca9, Cb3, Ca8, Ca10 (peptide, not shown: large carriers)
chain: ACNNSHMPLCGGGS
modifications: disulfide 2-10; not fully specified
- OD (binding of phages to LR04) (LRO4 [1]): 0.9 OD
- B/Bo (inhibition of binding to LR04) (LRO4 [2]): 0.04 B/Bo
- OD (binding of phages to control IgM) [3]: 0.2 OD

B17: phage clone Cb4 (peptide, not shown: large carriers)
chain: ACNNWKMPLCGGGS
modifications: disulfide 2-10; also: C-terminus fused to phage pIII
- OD (binding of phages to LR04) (LRO4 [1]): 0.6 OD
- B/Bo (inhibition of binding to LR04) (LRO4 [2]): 0.02 B/Bo
- OD (binding of phages to control IgM) [3]: 0.1 OD

B18: phage clone A31 (peptide, not shown: large carriers)
chain: QNMNNWTLASIMGGGS
- OD (binding of phages to LR04) (LRO4 [1]): 0.85 OD
- B/Bo (inhibition of binding to LR04) (LRO4 [2]): 0.25 B/Bo
- OD (binding of phages to control IgM) [3]: 0.08 OD

B19: phage clone A34 (peptide, not shown: large carriers)
chain: NSRTNNSQWTFQGGGS
- OD (binding of phages to LR04) (LRO4 [1]): 0.82 OD
- B/Bo (inhibition of binding to LR04) (LRO4 [2]): 0.11 B/Bo
- OD (binding of phages to control IgM) [3]: 0.11 OD

B20: phage clone M30 (peptide, not shown: large carriers)
chain: EVMNNWTLASIMGGGS
- OD (binding of phages to LR04) (LRO4 [1]): 1.04 OD
- B/Bo (inhibition of binding to LR04) (LRO4 [2]): 0.06 B/Bo
- OD (binding of phages to control IgM) [3]: 0.03 OD

B21: phage clone A32 (peptide, not shown: large carriers)
chain: HSWSNYWGHQHAGGGS
- OD (binding of phages to LR04) (LRO4 [1]): 0.98 OD
- B/Bo (inhibition of binding to LR04) (LRO4 [2]): 0.18 B/Bo
- OD (binding of phages to control IgM) [3]: 0.02 OD

B22: phage clone Ca6 (peptide, not shown: large carriers)
chain: ACNNSXMPLCGGGS
modifications: disulfide 2-10; not fully specified; X: residue not identified in the source
- OD (binding of phages to LR04) (LRO4 [1]): 0.7 OD
- B/Bo (inhibition of binding to LR04) (LRO4 [2]): 0.04 B/Bo
- OD (binding of phages to control IgM) [3]: 0 OD

B23: phage clones M10, G8 (peptide, not shown: large carriers)
chain: HSLSNIQMATLAGGGS
- OD (binding of phages to LR04) (LRO4 [1]): 1.16 OD
- B/Bo (inhibition of binding to LR04) (LRO4 [2]): 0.1 B/Bo
- OD (binding of phages to control IgM) [3]: 0.03 OD

B24: phage clone M36 (peptide, not shown: large carriers)
chain: DYTNSVSMRYLSGGGS
- OD (binding of phages to LR04) (LRO4 [1]): 1.47 OD
- B/Bo (inhibition of binding to LR04) (LRO4 [2]): 0.07 B/Bo
- OD (binding of phages to control IgM) [3]: 0.01 OD

B25: phage clone A38 (peptide, not shown: large carriers)
chain: HRMTNAMHHFMGGGGS
- OD (binding of phages to LR04) (LRO4 [1]): 0.64 OD
- B/Bo (inhibition of binding to LR04) (LRO4 [2]): 0.1 B/Bo
- OD (binding of phages to control IgM) [3]: 0.21 OD

B26: phage clone Cb9 (peptide, not shown: large carriers)
chain: ACNNQNMPLCGGGS
modifications: disulfide 2-10; also: C-terminus fused to phage pIII
- OD (binding of phages to LR04) (LRO4 [1]): 0.7 OD
- B/Bo (inhibition of binding to LR04) (LRO4 [2]): 0.02 B/Bo
- OD (binding of phages to control IgM) [3]: 0.01 OD

B27: phage clone Ca3 (peptide, not shown: large carriers)
chain: ACQNSHMPLCGGGS
modifications: disulfide 2-10; also: C-terminus fused to phage pIII
- OD (binding of phages to LR04) (LRO4 [1]): 0.5 OD
- B/Bo (inhibition of binding to LR04) (LRO4 [2]): 0.04 B/Bo
- OD (binding of phages to control IgM) [3]: 0.1 OD

B28: phage clone A39 (peptide, not shown: large carriers)
chain: GWGNKTPSQDVHGGGS
- OD (binding of phages to LR04) (LRO4 [1]): 1.19 OD
- B/Bo (inhibition of binding to LR04) (LRO4 [2]): 0.19 B/Bo
- OD (binding of phages to control IgM) [3]: 0.05 OD

B29: phage clone M31 (peptide, not shown: large carriers)
chain: HSLTNTQMTQLSGGGS
- OD (binding of phages to LR04) (LRO4 [1]): 1.35 OD
- B/Bo (inhibition of binding to LR04) (LRO4 [2]): 0.4 B/Bo
- OD (binding of phages to control IgM) [3]: 0.03 OD

B30: phage clones M6, G10 (peptide, not shown: large carriers)
chain: HRMTNNAMDVFMGGGS
- OD (binding of phages to LR04) (LRO4 [1]): 1.56 OD
- B/Bo (inhibition of binding to LR04) (LRO4 [2]): 0.2 B/Bo
- OD (binding of phages to control IgM) [3]: 0.03 OD

B31: phage clone Ca2 (peptide, not shown: large carriers)
chain: ACNNSKMRLCGGGS
modifications: disulfide 2-10; also: C-terminus fused to phage pIII
- OD (binding of phages to LR04) (LRO4 [1]): 0.8 OD
- B/Bo (inhibition of binding to LR04) (LRO4 [2]): 0.12 B/Bo
- OD (binding of phages to control IgM) [3]: 0.2 OD

B32: phage clone M15 (peptide, not shown: large carriers)
chain: ASISNLTLSRFMGGGS
- OD (binding of phages to LR04) (LRO4 [1]): 1.34 OD
- B/Bo (inhibition of binding to LR04) (LRO4 [2]): 0.15 B/Bo
- OD (binding of phages to control IgM) [3]: 0.04 OD
